Tests used:
[1] = molecular target: BRD4 first bromodomain (BD1), N44-E168 (human) (UniProt O60885); assay: ITC; peptide in the syringe titrated into protein in the cell; 15 °C; 50 mM HEPES pH 7.5, 150 mM NaCl; single binding site model
[2] = molecular target: BRD4 second bromodomain (BD2), D334-E460 (human) (UniProt O60885); assay: as above
[3] = molecular target: BRD4 first bromodomain (BRD4/BD1) (human) (UniProt O60885); assay: ITC; peptide titrated into BRD4/BD1 or BRD4/BD2 in the cell; 50 mM HEPES pH 7.5 (at 25°C), 150 mM NaCl, 15°C, stirring at 1,000 rpm; single-site binding model
[4] = molecular target: BRD4 second bromodomain (BRD4/BD2) (human) (UniProt O60885); assay: as above
[5] = molecular target: BRD4 first bromodomain (BRD4/BD1), hexa-His tag cleaved (human) (UniProt O60885); assay: ITC; peptide (1226 - 1433 μM) in the syringe, protein (36 - 59 μM) in the cell, 15°C, 50 mM HEPES pH 7.5, 150 mM NaCl, single binding site model
[6] = molecular target: BRD4 first bromodomain (BD1), N44-E168 (human) (UniProt O60885); assay: ITC; peptide titrated into protein; 100 mM Na3PO4 pH 8.0, 150 mM NaCl; single binding site model
[7] = molecular target: BRD4 second bromodomain (BD2), D334-E460 (human) (UniProt O60885); assay: as above
[8] = molecular target: BRD4 first bromodomain (BD1), N44-E168 (human) (UniProt O60885); assay: ITC; salt series: 15 °C, 300 mM NaCl; the sheet's heads give [Protein] 1055 uM and [Peptide] 45 uM
[9] = molecular target: BRD4 first bromodomain (BD1), N44-E168 (human) (UniProt O60885); assay: ITC; salt series: 15 °C, 450 mM NaCl; the sheet's heads give [Protein] 1085 uM and [Peptide] 45 uM
[10] = molecular target: BRD4 first bromodomain (BD1), N44-E168 (human) (UniProt O60885); assay: ITC; salt series: 15 °C, 1000 mM NaCl; the sheet's heads give [Protein] 1042 uM and [Peptide] 42 uM
[11] = molecular target: BRD4 first bromodomain (BD1), N44-E168 (human) (UniProt O60885); assay: ITC; temperature series: 5 °C, 150 mM NaCl; the sheet's heads give [Protein] about […] and [Peptide] about 45 uM
[12] = molecular target: BRD4 first bromodomain (BD1), N44-E168 (human) (UniProt O60885); assay: ITC; temperature series: 20 °C, 150 mM NaCl; [Protein] about 1050-1063 uM and [Peptide] 42-46 uM
[13] = molecular target: BRD4 first bromodomain (BD1), N44-E168 (human) (UniProt O60885); assay: ITC; temperature series: 25 °C, 150 mM NaCl; [Protein] about 1050-1063 uM and [Peptide] 42-46 uM
[14] = molecular target: BRD4 first bromodomain (BD1), N44-E168 (human) (UniProt O60885); assay: ITC; temperature series: 30 °C, 150 mM NaCl; [Protein] about 1050-1063 uM and [Peptide] 42-46 uM
[15] = molecular target: BRD4 first bromodomain (BD1), N44-E168 (human) (UniProt O60885); assay: ITC; temperature and salt series: 15 °C, 150 mM NaCl; the sheet's heads give [Protein] about 1060 uM and [Peptide] 42-51 uM
[16] = molecular target: BRD4 second bromodomain (BRD4/BD2) (human) (UniProt O60885); assay: ITC; peptide titrated into BRD4/BD1 or BRD4/BD2 in the cell; 100 mM Na3PO4 pH 8.0, 150 mM NaCl, 15°C, stirring at 1,000 rpm; single-site binding model
BRD4 BD1, 44-168 = BRD4 BD1, 44-168 (UniProt O60885); assay: isothermal titration calorimetry; settings: reference: H3 K9ac/K14ac peptide
BRD4 BD2, 334-460 = BRD4 BD2, 334-460 (UniProt O60885); assay: isothermal titration calorimetry; settings: reference: H3 K9ac/K14ac peptide

Substance	Kd [1] [µM]	stoichiometry N [1]	Kd [2] [µM]	stoichiometry N [2]	Kd [3] [µM]	Kd [4] [µM]	further results
ATRX K1030ac/K1033ac peptide	87.7	0.99	25.3	0.49	87.7	25.3	
E2F1 K117ac/K120ac peptide	45.8	0.9	34.8	0.56	45.8	34.8	
SRPK1 (K585acY) peptide used for ITC							Kd [5]: 9.9 µM
SRPK1 K585ac/K588ac peptide							stoichiometry N [6]: 0.92; Kd [7]: 29.7 µM; stoichiometry N [7]: 1.11; Kd [8]: 48.5 µM; stoichiometry N [8]: 1.02; Kd [9]: 58.5 µM; stoichiometry N [9]: 1.01; Kd [10]: 71.4 µM; stoichiometry N [10]: 0.96; Kd [11]: 49 µM; stoichiometry N [11]: 1.01; Kd [12]: 48.8 µM; stoichiometry N [12]: 1.14; Kd [13]: 40.2 µM; stoichiometry N [13]: 1.12; Kd [14]: 46.3 µM; stoichiometry N [14]: 1.12; Kd [15]: 45.7 µM; stoichiometry N [15]: 1.16; Kd [16]: 29.7 µM
TOP2A K1201ac/K1204ac peptide	19.5	0.85	63.3	0.51	19.5	63.3	
histone H3 (from UniProt P68431) H3 K9ac/pS10/K14ac peptide							binding against the reference (BRD4 BD1, 44-168; sites S10): same; binding against the reference (BRD4 BD2, 334-460; sites S10): lost
histone H3 (from UniProt P68431) H3 K9ac/pT11/K14ac peptide							binding against the reference (BRD4 BD1, 44-168; sites T11): lost; binding against the reference (BRD4 BD2, 334-460; sites T11): lost

Now from value to substance, other results behind:

Kd [1] [µM]	stoichiometry N [1]	Kd [2] [µM]	stoichiometry N [2]	Kd [3] [µM]	Kd [4] [µM]	Substance	further results
24.6	0.94	62.9	0.96	24.6	62.9	GATA1 K312ac/K315ac peptide	
15.8	0.52	44.4	0.87			SIRT7 K272ac/K275ac peptide	

Source: paper PMC6375729
